To fix the notation:
B1: scl-Fc fusion protein INS023 (Fc fusion)
chain: SFVNQHLCGSHLVEALELVCGERGFHYTPKTGSYPGGVGIVEQCCTSICSLSQLENYCGGEAEDLQVGQVELGGGPGAGSLQPEGSLQGGPSVFLFPPKPKDTLMISRTPEVTCVVVDVSHEDPEVKFNWYVDGVEVHNAKTKPREEQYNSTYRVVSVLTVLHQDWLNGKEYKCKVSNKALPAPIEKTISKAKGQPREPQVYTLPPSRDELTKNQVSLTCLVKGFYPSDIAVEWESNGQPENNYKTTPPVLDSDGSFFLYSKLTVDKSRWQQGNVFSCSVMHEALHNHYTQKSLSLSPGGGGGSAESKYGPPCPPCPA
B2: scl-Fc fusion protein INS022 (Fc fusion)
chain: FVNQHLCGSHLVEALELVCGERGFHYTPKTGSYPGGVGIVEQCCTSICSLSQLENYCGGEAEDLQVGQVELGGGPGAGSLQPEGSLQGGPSVFLFPPKPKDTLMISRTPEVTCVVVDVSHEDPEVKFNWYVDGVEVHNAKTKPREEQYNSTYRVVSVLTVLHQDWLNGKEYKCKVSNKALPAPIEKTISKAKGQPREPQVYTLPPSRDELTKNQVSLTCLVKGFYPSDIAVEWESNGQPENNYKTTPPVLDSDGSFFLYSKLTVDKSRWQQGNVFSCSVMHEALHNHYTQKSLSLSPGGGGGSAESKYGPPCPPCPA
B3: scl-Fc fusion protein INS021 (Fc fusion)
chain: SFVNQHLCGSHLVEALELVCGERGFHYTPKTEEYPGDVGIVEQCCTSICSLSQLENYCGGEAEDLQVGQVELGGGPGAGSLQLALEGSLQGGPSVFLFPPKPKDTLMISRTPEVTCVVVDVSHEDPEVKFNWYVDGVEVHNAKTKPREEQYNSTYRVVSVLTVLHQDWLNGKEYKCKVSNKALPAPIEKTISKAKGQPREPQVYTLPPSRDELTKNQVSLTCLVKGFYPSDIAVEWESNGQPENNYKTTPPVLDSDGSFFLYSKLTVDKSRWQQGNVFSCSVMHEALHNHYTQKSLSLSPGGGGGSAESKYGPPCPPCPA

These results are taken from patent publication US20260248892A1 (Sanofi, published 2026).

Chain of Rat IR (P15127 27-1383): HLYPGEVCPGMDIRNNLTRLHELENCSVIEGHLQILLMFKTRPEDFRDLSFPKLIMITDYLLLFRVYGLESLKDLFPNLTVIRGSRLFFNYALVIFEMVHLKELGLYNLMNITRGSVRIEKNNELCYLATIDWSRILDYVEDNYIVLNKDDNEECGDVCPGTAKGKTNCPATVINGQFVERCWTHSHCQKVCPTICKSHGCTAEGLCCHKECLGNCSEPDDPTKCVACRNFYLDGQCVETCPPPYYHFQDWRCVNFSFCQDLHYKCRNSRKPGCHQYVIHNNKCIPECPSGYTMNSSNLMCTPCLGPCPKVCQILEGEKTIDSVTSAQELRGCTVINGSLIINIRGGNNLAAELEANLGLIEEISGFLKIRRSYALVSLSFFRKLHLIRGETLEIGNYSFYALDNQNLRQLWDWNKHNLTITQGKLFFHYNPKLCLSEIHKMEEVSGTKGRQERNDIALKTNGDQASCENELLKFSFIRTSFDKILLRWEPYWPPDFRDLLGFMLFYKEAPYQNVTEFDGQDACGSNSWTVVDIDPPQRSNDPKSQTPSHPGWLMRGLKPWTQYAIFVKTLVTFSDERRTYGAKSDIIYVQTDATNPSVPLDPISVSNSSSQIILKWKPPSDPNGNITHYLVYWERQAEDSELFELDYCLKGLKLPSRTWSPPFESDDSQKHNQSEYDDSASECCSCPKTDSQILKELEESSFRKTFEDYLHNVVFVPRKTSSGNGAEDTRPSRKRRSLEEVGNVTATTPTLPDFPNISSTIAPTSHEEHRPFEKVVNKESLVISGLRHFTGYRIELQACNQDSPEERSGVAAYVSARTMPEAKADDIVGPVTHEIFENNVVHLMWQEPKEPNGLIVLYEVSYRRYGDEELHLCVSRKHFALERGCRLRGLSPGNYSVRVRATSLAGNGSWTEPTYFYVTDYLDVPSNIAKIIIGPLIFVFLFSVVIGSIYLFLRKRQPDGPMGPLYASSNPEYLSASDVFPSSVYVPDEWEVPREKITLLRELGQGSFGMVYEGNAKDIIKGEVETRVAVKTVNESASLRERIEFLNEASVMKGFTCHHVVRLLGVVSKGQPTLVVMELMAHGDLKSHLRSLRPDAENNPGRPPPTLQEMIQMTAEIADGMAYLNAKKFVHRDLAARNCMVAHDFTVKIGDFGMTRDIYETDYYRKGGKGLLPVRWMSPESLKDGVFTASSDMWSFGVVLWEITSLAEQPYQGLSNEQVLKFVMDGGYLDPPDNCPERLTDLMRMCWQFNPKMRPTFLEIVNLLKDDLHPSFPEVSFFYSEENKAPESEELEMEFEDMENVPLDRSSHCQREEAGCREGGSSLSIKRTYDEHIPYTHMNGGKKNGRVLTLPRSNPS

The first assay addresses human insulin receptor isoform B (human, UniProt P06213 28-1382). Briefly: cell-based or functional assay.
Consider B1, for which the “hIR-B-phosphorylation [EC50 nM] mean” value is 59.8 nM.
Consider B2, for which the “hIR-B-phosphorylation [EC50 nM] mean” value amounted to 42.2 nM.
With B3, the “hIR-B-phosphorylation [EC50 nM] mean” value is 288 nM.

A further assay deals with Pig IR (pig, UniProt F1SCL0 28-1382). In words: cell-based or functional assay.
As for B1, the “Pig IR phosphorylation [EC 50 nM] mean” value stood at 29.9 nM.
On the same count and under the same terms, the figure for B2 is 15.9 nM; for B3 it is 56.7 nM.

The next assay concerns the target human insulin receptor isoform A (human, UniProt P06213-2 28-1370). In words: cell-based or functional assay.
Take B1: the “hIR-A phosphorylation [EC50 nM] mean” value is 408 nM.
Still for that read-out and setting: the figure for B2 is 215 nM.
Turning to B3, the “hIR-A phosphorylation [EC50 nM] mean” value was found to be 447 nM.

The next assay addresses Rat IR (rat, UniProt P15127 27-1383). Briefly: cell-based or functional assay.
For B1, the “Rat IR phosphorylation [EC50 nM] mean” value was 381 nM.
With B2, the “Rat IR phosphorylation [EC50 nM] mean” value stood at 64.9 nM.
Take B3: the “Rat IR phosphorylation [EC50 nM] mean” value is 620 nM.
